In patent publication US20260001928A1 (CORTERIA PHARMACEUTICALS, priority 2022, published 2026):
*1 amine or outer side, *2 acyl side, *3 side chain or, on linkers, in order; H or OH if unused. Where a SMILES comes first, the peptide text is derived from it. Where no end group is shown, it is not given here. Side-chain parts run from the residue outwards. [ ]: non-standard residue; d: D form. The star is where a group is joined. C20 diacid = O=C(O)CCCCCCCCCCCCCCCCCCC(=O)*; C18 diacid = O=C(O)CCCCCCCCCCCCCCCCC(=O)*; C16 diacid = O=C(O)CCCCCCCCCCCCCCC(=O)*; γGlu = O=C(O)[C@H](CCC(=O)[*:2])N[*:1]; NMeI = CC[C@H](C)[C@H](NC)C(=O)O; Api = NC1(C(=O)O)CCNCC1; AEEA = NCCOCCOCC(=O)O; Aib = CC(C)(N)C(=O)O

T1: CFR1R receptor (Homo sapiens, UniProt P34998)
T1 construct: host or cells: CHO-K1 (clone 2)
T1 sequence (P34998 24-415): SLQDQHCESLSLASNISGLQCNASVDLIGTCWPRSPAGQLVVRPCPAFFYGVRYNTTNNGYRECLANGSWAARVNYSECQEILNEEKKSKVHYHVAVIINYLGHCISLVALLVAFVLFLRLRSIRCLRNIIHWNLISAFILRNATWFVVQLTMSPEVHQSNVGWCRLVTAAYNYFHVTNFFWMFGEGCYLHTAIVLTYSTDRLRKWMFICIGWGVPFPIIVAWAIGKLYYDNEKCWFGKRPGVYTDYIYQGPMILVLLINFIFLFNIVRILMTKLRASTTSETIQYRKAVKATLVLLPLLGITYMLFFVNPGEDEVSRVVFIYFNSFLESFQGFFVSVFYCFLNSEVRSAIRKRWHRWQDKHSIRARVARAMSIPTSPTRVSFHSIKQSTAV

T2: human CRF2a receptor (Homo sapiens, UniProt Q13324)
T2 construct: expressed in transfected cells; host or cells: TeloHEAC cells
T2 sequence (Q13324 1-411): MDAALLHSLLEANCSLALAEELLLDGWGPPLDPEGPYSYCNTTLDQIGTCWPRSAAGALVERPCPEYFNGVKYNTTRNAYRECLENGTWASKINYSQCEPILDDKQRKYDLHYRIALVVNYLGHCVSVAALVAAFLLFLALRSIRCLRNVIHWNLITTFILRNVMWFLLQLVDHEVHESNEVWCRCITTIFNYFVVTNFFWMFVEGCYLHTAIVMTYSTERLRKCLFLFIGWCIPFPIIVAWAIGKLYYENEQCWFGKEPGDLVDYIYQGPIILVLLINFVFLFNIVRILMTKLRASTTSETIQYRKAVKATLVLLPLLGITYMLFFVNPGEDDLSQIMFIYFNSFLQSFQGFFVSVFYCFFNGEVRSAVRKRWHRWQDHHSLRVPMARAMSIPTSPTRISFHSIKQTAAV

T3: CRF1R receptor (UniProt P34998 24-415, limits assumed)
T3 sequence (looked up): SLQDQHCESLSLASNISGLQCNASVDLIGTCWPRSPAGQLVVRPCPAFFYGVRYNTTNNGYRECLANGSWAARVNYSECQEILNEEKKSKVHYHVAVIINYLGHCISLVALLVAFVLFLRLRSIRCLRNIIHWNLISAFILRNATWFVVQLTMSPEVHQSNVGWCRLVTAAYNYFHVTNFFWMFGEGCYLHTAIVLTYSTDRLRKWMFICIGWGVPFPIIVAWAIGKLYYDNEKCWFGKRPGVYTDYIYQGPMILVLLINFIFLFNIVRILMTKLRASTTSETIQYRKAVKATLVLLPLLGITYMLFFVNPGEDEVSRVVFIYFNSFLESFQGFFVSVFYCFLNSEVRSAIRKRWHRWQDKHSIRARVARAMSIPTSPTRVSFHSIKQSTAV


How the values were obtained:
[1] = target: T1, CFR1R receptor; assay: Activity at anti-target CFR1R receptor, cAMP assay in CRF1R-overexpression CHO-K1 cells; type: cell-based; settings: 100% = Sauvagine at 100 nM
Procedure, shortened: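 Clone 2; cryopreserved stocks (10% DMSO); 4000 cells/well final; 100% activation = Sauvagine 100 nM; otherwise as TeloHAEC protocol.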

[2] = target: T2, human CRF2a receptor; assay: Activity at human CRF2a receptor, cAMP functional assay in TeloHEAC cells; type: cell-based; settings: TeloHEAC cells stably expressing human CRF2a receptor, relative to urocortin 2 (100 nM = 100%)
Protocol: Agonism of compounds for human corticotropin-releasing factor 2a (CRF2a receptor) was determined by a functional assay measuring cAMP modulation upon treatment of TeloHEAC cells stably expressing human CRF2a receptor. Compounds were dissolved at 0.5 mM in 100% DMSO and serially diluted (1:2) in 100% DMSO for 16 dilutions. 20 nL of each dilution was then transferred to 384-well assay plate using an acoustic droplet ejection instrument. 5 μL of compound buffer (1×HBSS; 20 mM HEPES,) were then added to each well. Prior to use, frozen cells were thawed quickly at 37° C. and washed (5 min at 900 rpm) with 20 mL cell buffer (1×HBSS; 20 mM HEPES). Cells were resuspended in cell buffer added with 2 mM IBMX and adjusted to a cell density of […]. 5 μL cells (final dell density: 10000 cells/well) were dispensed in the compound-containing 384-well assay plate and incubated for 30 minutes 37° C. The cAMP level in treated cells was determined using the Cisbio 62AM4PEC kit according to manufacturer's instruction. Finally, plates were incubated for 1 h at room temperature before measuring the fluorescence ratio between 665/620 nm. The percent activity value (E %) was calculated by setting 100 nM of urocortin 2 (UCN2) as 100%. The in vitro potency of the compounds was quantified by determining the concentrations that caused 50% activation of maximal response (EC50) relative to urocortin 2.

[3] = target: human corticotropin-releasing factor 2a (CRF2a receptor) (human), Q13324; assay: cell-based or functional assay
[4] = target: T3, CRF1R receptor; assay: cell-based or functional assay

| Molecule | Emax (% I) [1] [% I] | EC50 [2] [nM] | EC50 [nM] (cAMP) [3] | Emax (% I) [4] [%] |
| --- | --- | --- | --- | --- |
| CC[C@H](C)[C@H](NC)C(=O)N[C@H](C(=O)N[C@@H](CC(C)C)C(=O)N[C@@H](CO)C(=O)N[C@@H](CC(C)C)C(=O)N[C@@H](CC(=O)O)C(=O)N[C@@H](C(=O)N1CCC[C@H]1C(=O)N[C@H](C(=O)N[C@@H](CCCCN)C(=O)N[C@@H](CC(C)C)C(=O)N[C@@H](CCCCNC(=O)CC[C@H](NC(=O)CCCCCCCCCCCCCCCCCCC(=O)O)C(=O)O)C(=O)N[C@@H](CCCCN)C(=O)N[C@H](C(=O)N[C@@H](CC(C)C)C(=O)N[C@@H](CC(C)C)C(=O)N[C@@H](CCC(=O)O)C(=O)N[C@@H](CCC(N)=O)C(=O)N[C@@H](CCC(=O)O)C(=O)N[C@@H](C)C(=O)N[C@@H](CCC(N)=O)C(=O)N[C@@H](CCCCN)C(=O)N[C@@H](CCCCN)C(=O)N[C@@H](CCC(N)=O)C(=O)N[C@@H](CCCNC(=N)N)C(=O)N[C@@H](CCC(=O)O)C(=O)N[C@@H](CCC(N)=O)C(=O)N[C@@H](C)C(=O)N[C@@H](CCC(=O)O)C(=O)N[C@H](C(=O)N[C@@H](CC(N)=O)C(=O)NC(C)(C)C(=O)N[C@@H](CCC(N)=O)C(=O)N[C@H](C(=O)N[C@@H](CC(C)C)C(=O)N[C@@H](C)C(=O)N[C@@H](CCC(N)=O)C(=O)N[C@H](C(N)=O)C(C)C)[C@@H](C)CC)[C@@H](C)O)[C@@H](C)CC)[C@@H](C)CC)C(C)C)C(C)C [compound 216] (H-[NMeI]VLSLD[dV]PIKLK([γGlu-C20 diacid])KILLEQEAQKKQREQAETN[Aib]QILAQV-NH2) | 61 | 0.05 |  |  |
| [NMeI]VLSLD[dV]PIKLK([γGlu-C16 diacid])KILLEQEKQKKQREQAETNAQILAQV-NH2 (N-terminus assumed; SMILES CC[C@H](C)[C@H](NC)C(=O)N[C@H](C(=O)N[C@@H](CC(C)C)C(=O)N[C@@H](CO)C(=O)N[C@@H](CC(C)C)C(=O)N[C@@H](CC(=O)O)C(=O)N[C@@H](C(=O)N1CCC[C@H]1C(=O)N[C@H](C(=O)N[C@@H](CCCCN)C(=O)N[C@@H](CC(C)C)C(=O)N[C@@H](CCCCNC(=O)CC[C@H](NC(=O)CCCCCCCCCCCCCCC(=O)O)C(=O)O)C(=O)N[C@@H](CCCCN)C(=O)N[C@H](C(=O)N[C@@H](CC(C)C)C(=O)N[C@@H](CC(C)C)C(=O)N[C@@H](CCC(=O)O)C(=O)N[C@@H](CCC(N)=O)C(=O)N[C@@H](CCC(=O)O)C(=O)N[C@@H](CCCCN)C(=O)N[C@@H](CCC(N)=O)C(=O)N[C@@H](CCCCN)C(=O)N[C@@H](CCCCN)C(=O)N[C@@H](CCC(N)=O)C(=O)N[C@@H](CCCNC(=N)N)C(=O)N[C@@H](CCC(=O)O)C(=O)N[C@@H](CCC(N)=O)C(=O)N[C@@H](C)C(=O)N[C@@H](CCC(=O)O)C(=O)N[C@H](C(=O)N[C@@H](CC(N)=O)C(=O)N[C@@H](C)C(=O)N[C@@H](CCC(N)=O)C(=O)N[C@H](C(=O)N[C@@H](CC(C)C)C(=O)N[C@@H](C)C(=O)N[C@@H](CCC(N)=O)C(=O)N[C@H](C(N)=O)C(C)C)[C@@H](C)CC)[C@@H](C)O)[C@@H](C)CC)[C@@H](C)CC)C(C)C)C(C)C) [SEQ ID NO 68] |  |  | 0.05 | 8 |
| Ac-IVLSLD[dV]PIKLK([AEEA-AEEA-γGlu-C18 diacid])KILLEQEKQKKQREQAETN[Aib]QILAQV-NH2 (SMILES CC[C@H](C)[C@H](NC(C)=O)C(=O)N[C@H](C(=O)N[C@@H](CC(C)C)C(=O)N[C@@H](CO)C(=O)N[C@@H](CC(C)C)C(=O)N[C@@H](CC(=O)O)C(=O)N[C@@H](C(=O)N1CCC[C@H]1C(=O)N[C@H](C(=O)N[C@@H](CCCCN)C(=O)N[C@@H](CC(C)C)C(=O)N[C@@H](CCCCNC(=O)COCCOCCNC(=O)COCCOCCNC(=O)CC[C@H](NC(=O)CCCCCCCCCCCCCCCCC(=O)O)C(=O)O)C(=O)N[C@@H](CCCCN)C(=O)N[C@H](C(=O)N[C@@H](CC(C)C)C(=O)N[C@@H](CC(C)C)C(=O)N[C@@H](CCC(=O)O)C(=O)N[C@@H](CCC(N)=O)C(=O)N[C@@H](CCC(=O)O)C(=O)N[C@@H](CCCCN)C(=O)N[C@@H](CCC(N)=O)C(=O)N[C@@H](CCCCN)C(=O)N[C@@H](CCCCN)C(=O)N[C@@H](CCC(N)=O)C(=O)N[C@@H](CCCNC(=N)N)C(=O)N[C@@H](CCC(=O)O)C(=O)N[C@@H](CCC(N)=O)C(=O)N[C@@H](C)C(=O)N[C@@H](CCC(=O)O)C(=O)N[C@H](C(=O)N[C@@H](CC(N)=O)C(=O)NC(C)(C)C(=O)N[C@@H](CCC(N)=O)C(=O)N[C@H](C(=O)N[C@@H](CC(C)C)C(=O)N[C@@H](C)C(=O)N[C@@H](CCC(N)=O)C(=O)N[C@H](C(N)=O)C(C)C)[C@@H](C)CC)[C@@H](C)O)[C@@H](C)CC)[C@@H](C)CC)C(C)C)C(C)C) [SEQ ID NO 98] |  |  | 0.55 | -2 |
| Ac-IVLSLD[dV]PIKLK([AEEA-AEEA-γGlu-C18 diacid])KILLEQEKQKKQREQAETN[Api]QILAQV-NH2 (SMILES CC[C@H](C)[C@H](NC(C)=O)C(=O)N[C@H](C(=O)N[C@@H](CC(C)C)C(=O)N[C@@H](CO)C(=O)N[C@@H](CC(C)C)C(=O)N[C@@H](CC(=O)O)C(=O)N[C@@H](C(=O)N1CCC[C@H]1C(=O)N[C@H](C(=O)N[C@@H](CCCCN)C(=O)N[C@@H](CC(C)C)C(=O)N[C@@H](CCCCNC(=O)COCCOCCNC(=O)COCCOCCNC(=O)CC[C@H](NC(=O)CCCCCCCCCCCCCCCCC(=O)O)C(=O)O)C(=O)N[C@@H](CCCCN)C(=O)N[C@H](C(=O)N[C@@H](CC(C)C)C(=O)N[C@@H](CC(C)C)C(=O)N[C@@H](CCC(=O)O)C(=O)N[C@@H](CCC(N)=O)C(=O)N[C@@H](CCC(=O)O)C(=O)N[C@@H](CCCCN)C(=O)N[C@@H](CCC(N)=O)C(=O)N[C@@H](CCCCN)C(=O)N[C@@H](CCCCN)C(=O)N[C@@H](CCC(N)=O)C(=O)N[C@@H](CCCNC(=N)N)C(=O)N[C@@H](CCC(=O)O)C(=O)N[C@@H](CCC(N)=O)C(=O)N[C@@H](C)C(=O)N[C@@H](CCC(=O)O)C(=O)N[C@H](C(=O)N[C@@H](CC(N)=O)C(=O)NC1(C(=O)N[C@@H](CCC(N)=O)C(=O)N[C@H](C(=O)N[C@@H](CC(C)C)C(=O)N[C@@H](C)C(=O)N[C@@H](CCC(N)=O)C(=O)N[C@H](C(N)=O)C(C)C)[C@@H](C)CC)CCNCC1)[C@@H](C)O)[C@@H](C)CC)[C@@H](C)CC)C(C)C)C(C)C) [SEQ ID NO 109] |  |  | 1 | 4 |
